Test results: patent US20210087288A1

Tests used:
[1] = target: Cyno TfR extracellular domain (analogous ecd construct) (cynomolgus monkey); assay: SPR, bispecific antibody
[2] = target: Human TfR extracellular domain (ecd) containing an N-terminal His tag (human) (UniProt P02786); assay: SPR, bispecific antibody
Sequence of Human TfR extracellular domain (ecd) containing an N-terminal His tag (human) (P02786 89-760 G142S): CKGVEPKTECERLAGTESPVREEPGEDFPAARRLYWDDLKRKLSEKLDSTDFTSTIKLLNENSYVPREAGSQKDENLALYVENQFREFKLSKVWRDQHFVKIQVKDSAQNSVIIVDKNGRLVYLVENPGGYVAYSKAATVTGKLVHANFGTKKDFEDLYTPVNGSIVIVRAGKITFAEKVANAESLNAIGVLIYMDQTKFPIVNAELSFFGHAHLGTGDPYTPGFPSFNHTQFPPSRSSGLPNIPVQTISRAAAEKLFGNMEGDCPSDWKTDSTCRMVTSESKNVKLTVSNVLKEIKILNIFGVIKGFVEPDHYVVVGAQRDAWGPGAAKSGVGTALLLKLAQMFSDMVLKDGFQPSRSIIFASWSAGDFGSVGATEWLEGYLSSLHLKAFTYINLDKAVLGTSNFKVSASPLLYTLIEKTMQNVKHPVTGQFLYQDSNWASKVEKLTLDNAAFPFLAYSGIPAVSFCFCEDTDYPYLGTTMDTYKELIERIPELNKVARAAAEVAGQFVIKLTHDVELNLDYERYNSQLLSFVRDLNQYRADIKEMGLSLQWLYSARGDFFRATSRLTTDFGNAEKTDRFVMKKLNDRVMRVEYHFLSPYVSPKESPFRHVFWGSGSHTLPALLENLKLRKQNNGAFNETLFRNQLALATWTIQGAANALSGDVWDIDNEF

Sequence of Cyno TfR extracellular domain (analogous ecd construct) (cynomolgus monkey) (Q5RDH6 other isoform, or with tags, fused parts or gaps): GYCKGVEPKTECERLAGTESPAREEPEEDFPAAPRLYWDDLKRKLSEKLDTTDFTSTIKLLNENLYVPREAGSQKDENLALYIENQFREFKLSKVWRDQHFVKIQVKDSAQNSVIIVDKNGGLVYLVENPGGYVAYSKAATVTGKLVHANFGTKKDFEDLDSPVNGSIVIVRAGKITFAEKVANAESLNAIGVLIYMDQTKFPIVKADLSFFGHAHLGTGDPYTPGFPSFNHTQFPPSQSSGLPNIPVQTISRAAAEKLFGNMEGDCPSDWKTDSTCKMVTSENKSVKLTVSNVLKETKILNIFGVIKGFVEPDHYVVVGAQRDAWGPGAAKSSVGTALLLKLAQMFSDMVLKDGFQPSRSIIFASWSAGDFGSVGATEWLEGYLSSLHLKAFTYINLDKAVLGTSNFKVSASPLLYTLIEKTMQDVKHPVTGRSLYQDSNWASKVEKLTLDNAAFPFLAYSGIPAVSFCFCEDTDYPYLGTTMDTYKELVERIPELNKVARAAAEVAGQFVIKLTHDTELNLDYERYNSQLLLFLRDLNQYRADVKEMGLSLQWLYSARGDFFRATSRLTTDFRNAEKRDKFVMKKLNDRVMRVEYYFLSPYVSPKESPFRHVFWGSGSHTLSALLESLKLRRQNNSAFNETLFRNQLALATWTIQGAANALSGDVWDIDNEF

B1: Anti-TfR^53A/BACE1 bispecific antibody, human IgG1 N297G (bispecific antibody, part only; not given: anti-BACE1 half-antibody, V domains shown, not shown: another chain or arm of the molecule; a dimerising Fc or GST; small tags and cut ends)
VH: EVQLVQSGAEVKKPGASVKVSCKASGYTFTSYWMHWVRQAPGQRLEWIGEINPANGRTNYIEKFKSRATLTVDKSASTAYMELSSLRSEDTAVYYCARGTRAYHYWGQGTMVTVSS
VL: DIQMTQSPSSLSASVGDRVTITCRASDNLYSNLAWYQQKPGKSPKLLVYDATNLADGVPSRFSGSGSGTDYTLTISSLQPEDFATYYCQHFWGTPLTFGQGTKVEIK
- Kd [1]: 143 nM
- Kd [2]: 24 nM
